Laboratory results from patent publication US20190359674A1.
Positions of bridges follow the written chain, without caps; N, C: chain ends. Non-standard residues stand in square brackets, D forms with d. Dap = NC[C@H](N)C(=O)O

Molecular target: T1, recombinant human MAS1 receptor (human), P04201
T1 chain: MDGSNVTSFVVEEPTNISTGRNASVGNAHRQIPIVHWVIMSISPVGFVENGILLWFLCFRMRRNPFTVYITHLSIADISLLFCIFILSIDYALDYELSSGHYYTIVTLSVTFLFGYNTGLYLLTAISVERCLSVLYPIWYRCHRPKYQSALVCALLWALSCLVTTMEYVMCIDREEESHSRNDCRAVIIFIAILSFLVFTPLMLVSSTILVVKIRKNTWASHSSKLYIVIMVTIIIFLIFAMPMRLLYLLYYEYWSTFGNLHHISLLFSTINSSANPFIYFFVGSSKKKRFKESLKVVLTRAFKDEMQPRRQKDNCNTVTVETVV
Experiment: cell-based or functional assay

B1: cyclotide MCo-AT1-7 (designed binder)
chain: GGVCPKILQRCRRDSDCPGACICRGNGYCGSG[Dap]RVYIHE-OH
modifications: disulfide 11-23, 17-29, 4-21; lactam N-39 (inferred); also: Gly32 joined to Dap33 β-amino group by isopeptide bond, Dap33 α-amino group free
  activity in the MAS1 activation (NO release) assay relative to peptide AT1-7, at 10 nM (% of AT1-7 activity): 90
